Test results as given in patent US8409836B2, “Treatment of cellulosic material and enzymes useful therein” (Roal Oy, priority 2005, dated 2013).

Columns and labels:
[1] = Temperature optimum of heterologously produced xylanase; format: biochemical; details: pH 5.3, 60 min reaction
Experimental: (§1) Thermoascus XYN—30/Xyn10A was produced in T. reesei and the pH optimum of the heterologously produced protein was determined in the universal McIlvaine's buffer within a pH range of 3.0-8.0 using birch xylan as substrate (FIG. 8A). The optimal pH was determined to be 4.5. The temperature optimum for the enzymatic activity of XYN—30 was determined to be 75° C. (FIG. 8B).

[2] = Xylanase activity on birch xylan; format: biochemical
In short: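 Xylanase activity measured on birch glucuronoxylan by the IUPAC 1987 standard procedure, using enzyme purified from Acremonium thermophilum ALKO4245 or Thermoascus aurantiacus ALKO4242 culture supernatant. Protein determined by dye-binding assay against a bovine serum albumin standard.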

[3] = Isoelectric focusing (PhastSystem), pI of purified protein; format: physicochemical; details: IEF gel
Experimental: The sample was dissolved in water and applied to a Superdex 75 HR 10/30 gel filtration column equilibrated with 20 mM sodium phosphate pH 6.0, containing 0.15 M NaCl. Fractions were collected and those containing endoglucanase activity were combined. The protein eluate was judged to be pure by SDS-polyacrylamide gel electrophoresis and the molecular mass was evaluated on the basis of molecular mass standards (prestained SDS-PAGE standards, Broad Range, Bio-Rad) to be 54 kDa. The pI of the purified protein, designated as Ct EG—54 was determined with PhastSystem (Pharmacia) to be ca 5.5.
The sample was applied to a Sephacryl S-100 HR 26/60 gel filtration column equilibrated with 50 mM sodium acetate buffer pH 5.0, containing 0.05 M NaCl. The protein fraction containing endoglucanase activity was eluted from the column with a retention volume corresponding to a molecular weight of 16 kDa. Collected fractions were combined, concentrated and gel filtration was repeated. The protein eluate was judged to be pure by SDS-polyacryl amide gel electrophoresis and the molecular weight was evaluated to be 28 kDa. The pI of the purified protein, designated as Ta EG—28, was determined in an IEF gel (PhastSystem, Pharmacia) to be about 3.5. The specific activity of Ta EG—28 at 50° C. was determined to be 4290 nkat/mg (procedure of IUPAC 1987, using CMC as substrate).
The active material from the anion exchange chromatography was applied to a Sephacryl S-300 HR 26/60 column equilibrated with 20 mM sodium phosphate pH 6.5, containing 0.15 M NaCl. The protein with β-glucosidase activity was eluted with a retention volume corresponding to a molecular weight of 243 kDa. The protein was judged to be pure by SDS-polyacrylamide gel electrophoresis and the molecular weight was evaluated to be 101 kDa. The pI of the purified protein, designated as At βG—101, was determined in an IEF gel (PhastSystem, Pharmacia) to be in the area of 5.6-4.9. The specific activity of At βG—101 at 50° C. was determined to be 1100 nkat/mg (using 4-nitrophenyl-β-D-glucopyranoside as substrate, Bailey and Linko, 1990).
The active material from the cation exchange chromatography was applied to a Sephacryl S-300 HR 26/60 column equilibrated with 20 mM sodium phosphate pH 7.0, containing 0.15 M NaCl. The protein with β-glucosidase activity was eluted with a retention volume corresponding to a molecular weight of 294 kDa. […] The protein was judged to be pure by SDS-polyacrylamide gel electrophoresis and the molecular weight was evaluated to be 81 kDa, representing most likely the monomeric form of the protein. […] The specific activity of the purified protein, designated as Ta βG—81, at 50° C. was determined to be 600 nkat/mg using 4-nitrophenyl-β-D-glucopyranoside as substrate (Bailey and Linko, 1990). […]

[4] = pH optimum of heterologously produced xylanase; format: biochemical; details: McIlvaine's buffer, pH range 3.0-8.0, birch xylan
Experimental: as §1

[5] = Hydrolysis with CBH enzyme mixtures, willow; format: biochemical; details: additional enzymes EGII, bG, 48 h, 45° C., pH 5.0
In short: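 Purified CBH/Cel7 (14.5 mg/g substrate dry matter) combined with T. reesei EGII/Cel5A (3.6 mg/g) or with EGI (1.8 mg/g), EGII (1.8 mg/g), xylanase pI 9 (5000 nkat/g) and AXE (250 nkat/g), plus β-glucosidase (176 nkat/g). Washed steam-pretreated willow, 10 mg/ml in 0.05 M sodium acetate, 45° C., 48 h. Reducing sugars by DNS (glucose standard).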

[6] = Hydrolysis with CBH enzyme mixtures, Avicel; format: biochemical; details: additional enzymes EGII, bG; 48 h, 45° C., pH 5.0
In short: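 Each CBH/Cel7 dosed at 14.5 mg/g substrate dry matter with T. reesei EGII/Cel5A (3.6 mg/g) or with EGI (1.8 mg/g), EGII (1.8 mg/g), xylanase (5000 nkat/g) and AXE (250 nkat/g), plus β-glucosidase (176 nkat/g d.w.). Avicel at 10 mg/ml in 0.05 M sodium acetate, stirred 48 h at 45° C, triplicates; reducing sugars by DNS versus glucose standard.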

[7] = Crystalline cellulose (Avicel) hydrolysis by recombinant cellobiohydrolases; format: biochemical; details: 70° C., pH 5.0, enzyme 1.4 μM
Experimental: The purified recombinant cellobiohydrolases Ct Cel7A, Ta Cel7A, Ta Cel7A+Tr CBD, Ta Cel7A+Ct CBD, At Cel7A as well as the core version of Ct Cel7A (see below) were tested in equimolar amounts in crystalline cellulose hydrolysis at two temperatures, 45° C. and 70° C.; the purified T. reesei Tr Cel7A and its core version (see below) were used as comparison. The crystalline cellulose (Ph 101, Avicel; Fluka, Bucsh, Switzerland) hydrolysis assays were performed in 1.5 ml tube scale 50 mM sodium acetate, pH 5.0. Avicel was shaken at 45° C. or at 70° C., with the enzyme solution (1.4 μM), and the final volume of the reaction mixture was 325 μl. The hydrolysis was followed up to 24 hours taking samples at six different time points and stopping the reaction by adding 163 μl of stop reagent containing 9 vol of 94% ethanol and 1 vol of 1 M glycine (pH 11). […] The formation of soluble reducing sugars in the supernatant was determined by para-hydroxybenzoicacidhydrazide (PAHBAH) method (Lever, 1972) using a cellobiose standard curve (50 to 1600 μM cellobiose). […] The absorbance of the samples at 405 nm was measured.
The core versions of the cellobiohydrolases harboring a CBD in their native form were obtained as follows: Ct Cel7A and Tr Cel7A were exposed to proteolytic digestion to remove the cellulose-binding domain. […] The product was analysed in SDS-PAGE.

[8] = Hydrolysis with CBH enzyme mixtures, corn stover; format: biochemical; details: additional enzymes EGII, bG, 48 h, 45° C., pH 5.0
In short: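 Purified recombinant CBH/Cel7 (14.5 mg/g substrate dry matter) combined with T. reesei EGII/Cel5A or an EGI/EGII/xylanase/AXE mixture, plus β-glucosidase (176 nkat/g). Washed wet-oxidized corn stover, 10 mg/ml in 0.05 M sodium acetate, stirred 48 h at 45° C, triplicate. Reducing sugars by DNS against glucose, versus inactivated-enzyme references.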

[9] = Hydrolysis with CBH enzyme mixtures, spruce; format: biochemical; details: additional enzymes EGII, bG; 48 h, 45° C., pH 5.0
In short: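 Washed SO2-steam pre-treated spruce (10 mg dry matter/ml, 0.05 M sodium acetate) hydrolysed 48 h at 45 °C with each CBH/Cel7 (14.5 mg/g) plus T. reesei EGII (3.6 mg/g), or plus EGI, EGII, xylanase and AXE, all with added β-glucosidase. Reducing sugars measured by DNS against glucose.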

Molecule: Ta XYN_30: xylanase of Thermoascus aurantiacus ALKO4242, gene Ta xyn10A, amino acid SEQ ID NO: 18
- Temperature optimum [1]: 75 °C
- Xylanase activity of the preparation ([2]; assayed according to Bailey et al., 1992): 132 000 nkat/ml
- Specific activity on birch xylan ([2]; purified xylanase, 50° C., procedure of IUPAC 1987): 4800 nkat/mg
- pI of the purified protein [3]: ca. 6.8
- pH optimum [4]: 4.5

B1: Ta Cel7A + Tr CBD: Thermoascus aurantiacus Cel7A fused to linker and CBD of Trichoderma reesei CBHI/Cel7A, SEQ ID NO: 28 (protein)
chain: MYQRALLFSFFLAAARAQQAGTVTAENHPSLTWQQCSSGGSCTTQNGKVVIDANWRWVHTTSGYTNCYTGNTWDTSICPDDVTCAQNCALDGADYSGTYGVTTSGNALRLNFVTQSSGKNIGSRLYLLQDDTTYQIFKLLGQEFTFDVDVSNLPCGLNGALYFVAMDADGGLSKYPGNKAGAKYGTGYCDSQCPRDLKFINGQANVEGWQPSANDPNAGVGNHGSCCAEMDVWEANSISTAVTPHPCDTPGQTMCQGDDCGGTYSSTRYAGTCDPDGCDFNPYRQGNHSFYGPGQIVDTSSKFTVVTQFITDDGTPSGTLTEIKRFYVQNGKVIPQSESTISGVTGNSITTEYCTAQKAAFGDNTGFFTHGGLQKISQALAQGMVLVMSLWDDHAANMLWLDSTYPTDADPDTPGVARGTCPTTSGVPADVESQYPNSYVIYSNIKVGPIGSTGNPSGGNPPGGNPPGTTTTRRPATTTGSSPGPTQSHYGQCGGIGYSGPTVCASGTTCQVLNPYYSQCL
- Hydrolysis products as reducing sugars, WILLOW ([5]; EGI, XYL, AXE): 5.9 mg/mL
- Hydrolysis products as reducing sugars, WILLOW [5]: 4.0 mg/mL
- Hydrolysis products as reducing sugars, Avicel [6]: 5.8 mg/mL
- Avicel hydrolysis as compared to T. reesei Cel7A [7]: superior
- Hydrolysis products as reducing sugars, WOCS ([8]; EGI, XYL, AXE): 7.2 mg/mL
- Hydrolysis products as reducing sugars, WOCS [8]: 4.4 mg/mL
- Hydrolysis products as reducing sugars, SPRUCE [9]: 4.0 mg/mL
